This is an account of results in publication PMC7156385, “Proper chromosome alignment depends on BRCA2 phosphorylation by PLK1” (Nature Communications, 2020).

In assay [1] the target is BRCA2_(190-284) phosphorylated by PLK1 (human) (UniProt P51587). Kind of assay: ITC; PLK1 PBD (326-603) and BRCA2 peptides; 50 mM Tris-HCl pH 8.0, 150 mM NaCl, 5 mM β-ME, 293 K, VP-ITC, one-site binding model. For orientation: In ITC the heat of successive injections is recorded.
In assay [2] the target is endogenous BUBR1 (human (endogenous in DLD1)) (UniProt O60566). The experiment in a line: co-IP; immunoprecipitation of endogenous BUBR1 with mouse anti-BUBR1 antibody from nocodazole-treated DLD1 BRCA2-/- stable clones expressing BRCA2 WT or variants; extraction buffer A, washes up to 500 mM NaCl; western blot for PP2A-C and PLK1. (In general: Immunoblotting shows a protein as a band on a membrane.)
Chain of endogenous BUBR1 (human (endogenous in DLD1)) (O60566 whole entry): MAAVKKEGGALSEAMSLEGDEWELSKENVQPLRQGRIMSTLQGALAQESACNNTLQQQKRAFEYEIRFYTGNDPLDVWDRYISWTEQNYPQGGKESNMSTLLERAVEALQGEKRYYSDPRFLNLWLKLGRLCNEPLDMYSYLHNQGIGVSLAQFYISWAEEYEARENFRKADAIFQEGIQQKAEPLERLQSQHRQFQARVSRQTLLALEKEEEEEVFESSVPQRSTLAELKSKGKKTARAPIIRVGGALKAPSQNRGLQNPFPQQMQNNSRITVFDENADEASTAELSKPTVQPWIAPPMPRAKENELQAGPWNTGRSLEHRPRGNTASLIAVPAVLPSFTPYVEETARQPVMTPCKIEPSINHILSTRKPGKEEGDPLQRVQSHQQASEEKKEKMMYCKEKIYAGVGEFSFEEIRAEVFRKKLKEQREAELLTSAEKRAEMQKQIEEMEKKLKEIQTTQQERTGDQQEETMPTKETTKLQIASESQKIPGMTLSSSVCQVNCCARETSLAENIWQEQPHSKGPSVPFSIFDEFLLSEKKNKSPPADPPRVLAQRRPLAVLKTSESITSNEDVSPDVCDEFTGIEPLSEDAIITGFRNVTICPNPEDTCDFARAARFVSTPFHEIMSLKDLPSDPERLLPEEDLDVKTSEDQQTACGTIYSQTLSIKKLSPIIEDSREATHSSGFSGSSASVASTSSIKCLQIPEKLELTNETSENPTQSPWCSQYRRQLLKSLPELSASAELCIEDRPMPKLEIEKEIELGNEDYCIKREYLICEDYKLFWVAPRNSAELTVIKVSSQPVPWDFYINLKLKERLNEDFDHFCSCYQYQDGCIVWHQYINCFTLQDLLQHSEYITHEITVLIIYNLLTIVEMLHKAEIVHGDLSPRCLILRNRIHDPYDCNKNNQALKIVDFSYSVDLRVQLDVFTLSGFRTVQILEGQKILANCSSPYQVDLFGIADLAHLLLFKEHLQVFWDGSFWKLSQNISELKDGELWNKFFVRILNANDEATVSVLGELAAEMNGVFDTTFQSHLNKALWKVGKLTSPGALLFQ

For assay [3], the target named is purified 2xMBP-BRCA2_(1-250) T207A (human) (UniProt P51587).
Assay [4] concerns the target T1, PLK1 Polo-box domain (amino acid 326 to amino acid 603) (UniProt P53350 326-603).
T1 construct: PLK1, Polo-box domain, amino acids 326 to 603, amplified from Addgene pTK24; also called PLK1PBD; PLK1 PBD (326-603); source: E. coli Tuner pLacI pRare, purified (His-Trap, SUMO protease, Ni-NTA, Superdex)
The experiment in a line: ITC; PLK1 PBD (326-603) and BRCA2 peptides; 50 mM Tris-HCl pH 8.0, 150 mM NaCl, 5 mM β-ME, 293 K, VP-ITC, one-site binding model. The following applies: both partners purified.

In a further assay the target is T2, recombinant PLK1 (UniProt P53350 1-603).
T2 construct: Polo-like kinase 1 (PLK1), cDNA from Addgene pTK24 cloned into pFast-Bac HT; also called 6xHis-PLK1; PLK1-WT; source: Sf9, purified (Ni-NTA, Capto S) or bought: Abcam
T2 sequence (P53350 whole entry): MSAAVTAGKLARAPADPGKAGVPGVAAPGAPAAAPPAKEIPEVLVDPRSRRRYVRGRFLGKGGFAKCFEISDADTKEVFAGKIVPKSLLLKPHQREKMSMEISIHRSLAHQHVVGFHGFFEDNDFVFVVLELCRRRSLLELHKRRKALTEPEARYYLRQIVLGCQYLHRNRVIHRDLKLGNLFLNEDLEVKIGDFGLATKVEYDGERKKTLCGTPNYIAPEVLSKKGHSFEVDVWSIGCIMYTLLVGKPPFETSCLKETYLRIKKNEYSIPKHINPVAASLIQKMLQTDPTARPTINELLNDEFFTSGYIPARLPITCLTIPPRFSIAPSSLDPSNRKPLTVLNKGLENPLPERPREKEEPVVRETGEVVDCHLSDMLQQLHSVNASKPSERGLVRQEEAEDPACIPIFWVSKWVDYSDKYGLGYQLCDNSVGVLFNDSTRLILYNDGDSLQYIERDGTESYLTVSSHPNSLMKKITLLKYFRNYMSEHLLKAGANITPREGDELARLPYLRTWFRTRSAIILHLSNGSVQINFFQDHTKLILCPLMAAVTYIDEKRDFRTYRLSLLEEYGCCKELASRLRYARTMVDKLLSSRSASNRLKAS
The experiment in a line: pull-down; in vitro kinase reaction (0.2 µg PLK1 or PLK1-KD, 0.5 µg 2xMBP-BRCA2_(1-250), kinase buffer with 250 µM ATP or without ATP, 30 min at 30 °C) followed by amylose beads for 1 h at 4 °C, washes with 0.5% NP-40 and 0.1% Triton X-100, elution with 10 mM maltose; western blot. The following applies: both partners purified.

[ ]: non-standard residue; d: D form. pT = C[C@@H](OP(=O)(O)O)[C@H](N)C(=O)O; pS = N[C@@H](COP(=O)(O)O)C(=O)O

T1 sequence (P53350 326-603): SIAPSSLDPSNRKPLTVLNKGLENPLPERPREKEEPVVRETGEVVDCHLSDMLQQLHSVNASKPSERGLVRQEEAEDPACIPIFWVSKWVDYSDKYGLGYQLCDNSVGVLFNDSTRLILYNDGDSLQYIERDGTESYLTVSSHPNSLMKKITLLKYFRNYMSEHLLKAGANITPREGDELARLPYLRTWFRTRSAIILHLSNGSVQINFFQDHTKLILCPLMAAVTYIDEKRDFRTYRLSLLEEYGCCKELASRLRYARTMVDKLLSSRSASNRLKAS
Chain of BRCA2_(190-284) phosphorylated by PLK1 (human) (P51587 190-284): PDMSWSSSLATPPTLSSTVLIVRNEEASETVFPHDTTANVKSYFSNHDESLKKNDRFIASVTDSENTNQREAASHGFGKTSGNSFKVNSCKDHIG

One may read the Kd as the free concentration of one partner at which half of the binding sites on the other are occupied at equilibrium, for simple one-to-one binding. As for “PLK1 Polo-box domain (amino acid 326 to amino acid 603) (from UniProt P53350 326-603) (domain or fragment)”, the Kd in assay [1] was 140 nM. On to “PP2A (detected by its catalytic subunit, PP2AC) (from UniProt P67775 1-309) (cell line)”, for which the reduction of PP2A co-immunoprecipitated with BUBR1 in BRCA2-T207A cells against BRCA2 WT cells in assay [2] came out at 30%. As for “recombinant PLK1 (from UniProt P53350 1-603) (enzyme)”, in assay [3], the fold decrease in in vitro kinase assay: phosphorylation of 2xMBP-BRCA2 (1-250) by recombinant PLK1 (32P), T207A against WT is 2 fold.

B1: BRCA2 17 aa peptide containing pT207 (194WSSSLATPPTLSS{pT}VLI210) (peptide)
peptide: Ac-WSSSLATPPTLSS[pT]VLI-NH2
SMILES: CC[C@H](C)[C@H](NC(=O)[C@H](CC(C)C)NC(=O)[C@@H](NC(=O)[C@@H](NC(=O)[C@H](CO)NC(=O)[C@H](CO)NC(=O)[C@H](CC(C)C)NC(=O)[C@@H](NC(=O)[C@@H]1CCCN1C(=O)[C@@H]1CCCN1C(=O)[C@@H](NC(=O)[C@H](C)NC(=O)[C@H](CC(C)C)NC(=O)[C@H](CO)NC(=O)[C@H](CO)NC(=O)[C@H](CO)NC(=O)[C@H](Cc1c[nH]c2ccccc12)NC(C)=O)[C@@H](C)O)[C@@H](C)O)[C@@H](C)OP(=O)(O)O)C(C)C)C(N)=O
notes: BRCA2, human, residues 194-210, T207 phosphorylated; Used for ITC and for the crystal; also called pT207 peptide; T207 phosphorylated peptide; source: synthetic peptide
For the molecule B1, the Kd in assay [4] was 90 ± 10 nM.

B2: purified 2xMBP-BRCA2_(1-250) WT (domain or fragment, human, UniProt P51587 1-250, looked up)
chain: MPIGSKERPTFFEIFKTRCNKADLGPISLNWFEELSSEAPPYNSEPAEESEHKNNNYEPNLFKTPQRKPSYNQLASTPIIFKEQGLTLPLYQSPVKELDKFKLDLGRNVPNSRHKSLRTVKTKMDQADDVSCPLLNSCLSESPVVLQCTHVTPQRDKSVVCGSLFHTPKFVKGRQTPKHISESLGAEVDPDMSWSSSLATPPTLSSTVLIVRNEEASETVFPHDTTANVKSYFSNHDESLKKNDRFIASV
notes: BRCA2, human, amino acids 1 to 250; also called PLK1-phosphorylated BRCA2_(1-250); source: HEK293T, transfected, purified (amylose resin, Bio-Rex 70)
Take B2: the binding result with recombinant PLK1 is reported as “binds”.

B3: BRCA2 peptide containing pS197 (peptide)
chain: Ac-DMSWSS[pS]LAT-NH2
SMILES: CSCC[C@H](NC(=O)[C@H](CC(=O)O)NC(C)=O)C(=O)N[C@@H](CO)C(=O)N[C@@H](Cc1c[nH]c2ccccc12)C(=O)N[C@@H](CO)C(=O)N[C@@H](CO)C(=O)N[C@@H](COP(=O)(O)O)C(=O)N[C@@H](CC(C)C)C(=O)N[C@@H](C)C(=O)N[C@H](C(N)=O)[C@@H](C)O
In turn, B3 yielded a Kd in assay [4] of 17000 ± 2000 nM.
